In US20220048948A1 (REGENTS OF THE UNIVERSITY OF MINNESOTA, published 2022):
No end group written: not given here.

Tests used:
[1] = target: T1, FLAG-tagged rhsCD40 (Alexis) (human, UniProt P25942 21-193, limits assumed); assay: ELISA, peptide and FLAG-tagged rhsCD40 (1 ug/ml), detected with HRP anti-FLAG antibody, TMB, OD 450 nm
T1 construct: Bought reagent (Alexis); also called recombinant human CD40; human CD40; not shown: FLAG tag
Protocol: Binding of the identified peptides to CD40 was analyzed by ELISA. Briefly, plates were coated with […] and then incubated with identified peptides and detected using Flag-tagged rhsCD40.
In order to confirm the specificity of the peptides to interfere with CD40:CD154 interaction, the specificity of peptides 1-7 as listed in table 1 to bind to human […] by ELISA was tested. Briefly, 96 well ELISA (Nunc Immunolon) plates were coated with the peptides in carbonate buffer. The wells are washed and probed with FLAG-tagged rhsCD40 (1 μg/ml; Alexis) and developed with HRP conjugated rabbit anti-FLAG antibody. The plates were washed and the enzymatic activity was determined using 3,3′,5,5′-tetramethyl-benzidine substrate for 15 minutes and the reaction was stopped by the addition of 2 M H2SO4, and optical density was measured at 450 nm, with the correction wavelength set at 620 nm.

[2] = target: CD40 on Rhesus macaque peripheral blood mononuclear cells / B cells (Rhesus macaque, UniProt F6SNI1 21-278); assay: cell-based or functional assay

T1 sequence (P25942 21-193 limits assumed): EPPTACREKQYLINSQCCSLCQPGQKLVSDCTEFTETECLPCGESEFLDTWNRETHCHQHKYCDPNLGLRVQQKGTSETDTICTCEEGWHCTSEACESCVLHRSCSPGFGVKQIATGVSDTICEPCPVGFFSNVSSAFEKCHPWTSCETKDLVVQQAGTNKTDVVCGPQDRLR

| Binder | binding result [1] | MHC class II expression on B cells after activation with recombinant hCD40L, peptide at 30 µM [2] [% reduction] |
| --- | --- | --- |
| LVNWADKAFYTTSNN (also: also made with a fluorescent label, dye and site not given here) [Peptide 5] | binds | 50 |
| VVQWAEKGYYTMSQN (also: also made with a fluorescent label, dye and site not given here) [Peptide 7] | binds | 50 |
| VVQWAEKGFFTMSNN (also: also made with a fluorescent label, dye and site not given here) [Peptide 3] | binds | 50 |

Other lines, results leading:

| binding result [1] | MHC class II expression on B cells after activation with recombinant hCD40L, peptide at 30 µM [2] [% reduction] | Binder |
| --- | --- | --- |
| binds | 50 | LLQWAERGYFMTSNN (also: also made with a fluorescent label, dye and site not given here) [Peptide 6] |
| binds | 50 | VLQWAEKGYYTMSNN (also: also used fluorescently labelled (dye and position not given here), called cyclic, no cyclisation chemistry given, also called control Peptide 1) [Peptide 1 (control CD40-binding peptide)] |
| binds | 50 | VLQWAERGFYTTSNN (also: also made with a fluorescent label, dye and site not given here) [Peptide 2] |
| binds | 50 | VLNWADKAYFTMSQN (also: also made with a fluorescent label, dye and site not given here) [Peptide 4] |
